Laboratory results from publication doi:10.1101/2023.08.24.554544.

Target: GST-tagged A. thaliana Rpn10 (AtRpn10) vWA domain (Arabidopsis thaliana) (UniProt P55034)
Assay: SPR

GST-tagged A. thaliana Rpn10 (AtRpn10) vWA domain (Arabidopsis thaliana), sequence (P55034 2-193): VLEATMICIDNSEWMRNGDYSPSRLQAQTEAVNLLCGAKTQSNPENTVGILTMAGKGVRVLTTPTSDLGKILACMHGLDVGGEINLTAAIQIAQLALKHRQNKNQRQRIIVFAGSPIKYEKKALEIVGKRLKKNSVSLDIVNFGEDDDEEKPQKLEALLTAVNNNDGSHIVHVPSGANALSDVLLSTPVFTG

With “V-shape-GSGS-C-ter peptide (fused V-shape and C-ter peptide of SAP05, linked by the GSGS linker)” the Kd was 34.3 µM.
